Results reported in patent publication US20100075297A1, “PHOTOSENSITIVE POLYPEPTIDE AND METHODS OF THEIR PRODUCTION AND USE” (priority 2006, published 2010).
“Also recorded” adds a separate entry of the source. *1 amine or outer side, *2 acyl side, *3 side chain or, on linkers, in order; H or OH if unused. Where a SMILES comes first, the peptide text is derived from it. [ ]: non-standard residue; d: D form. The star is where a group is joined. X2 = COc1cc(CN([C@@H](Cc2ccc(OP(=O)(O)O)cc2)C(=O)[*:2])[*:1])c([N+](=O)[O-])cc1OC; Gly(N-Dmnb) = COc1cc(CNCC(=O)O)c([N+](=O)[O-])cc1OC; X1 = CN(C)c1ccc(-c2cnc(-c3ccc(S(=O)(=O)*)cc3)o2)cc1; pY = N[C@@H](Cc1ccc(OP(=O)(O)O)cc1)C(=O)O; coumarin = not defined here; Dab = NCC[C@H](N)C(=O)O

Tests used:
[1] = molecular target: T1, Lck SH2 domain (Homo sapiens, UniProt P06239); test: Competition assay with dapoxyl-labeled sensor peptide A for Kd at the Lck SH2 domain; type: binding
T1 construct: made in house
Experimental: By contrast, the difference in affinity between 5 (43±10 μM) and 6 is somewhat more modest. The caged derivative 4 is converted to the high affinity form 6 upon photolysis. Longer photolysis times generate larger yields of the active peptide 6 (see “Experimental procedures” section below). The latter provides a straightforward means to deliver desired quantities of the active species.
The competition assay schematically illustrated in FIG. 7 was employed to determine Kds for peptides 4, 5, and 6. Experiments were conducted using 3 μM peptide A, 20 μM DTT, 5 μM GST-Lck-SH2 (in 10% glycerol), and 33.3 mM of Tris buffer (pH 7.5) in a total assay volume of 150 μL. The fluorescence of the solution was monitored on a Photon Technology QM-1 spectrofluorimeter at 30° C. at λex=395 nm and λem=535 nm. The fluorescence of the peptide A solution was measured in the presence of variable concentrations of peptides 4, 5, or 6. Control assays in the absence of GST-Lck-SH2 were also performed at the same concentrations. The following Kdx values were obtained: peptide 4 (127±6 μM), peptide 5 (43±10 μM), and peptide 6 (2.6±0.2).
and [St]=total [A], Fx=fluorescence at a given concentration of peptide X (i.e. 4, 5, or 6), Fmax=fluorescence in the absence of peptide X, F0=fluorescence in the absence of Lck-SH2 domain, Kd=binding constant of A/Lck-SH2 domain, [Pt]=total [Lck-SH2], [P]=uncomplexed [Lck-SH2], [Xt]=total [4, 5, or 6], [PX]=[4, 5, or 6/Lck-SH2 complex], [SP]=[A/Lck-SH2 complex], Kdx=dissociation constant of peptide 4, 5, or 6/Lck-SH2 domain complex.

[2] = molecular target: T1, Lck SH2 domain; test: Photolysis of caged peptide 4, read out by displacement of sensor A from the Lck SH2 domain; type: binding
Experimental: Experiments were conducted using 3 μM peptide A, 20 μM DTT, 5 μM GST-Lck-SH2 (in 10% glycerol), peptide 4 (32 μM) in 33.3 mM Tris buffer (pH 7.5) and a total assay volume 150 μL. The fluorescence of the solution was monitored on a Photon Technology QM-1 spectrofluorimeter at 30° C. at λex=395 nm and λem=535 nm. Caged peptide (4) was irradiated using an Oriel Mercury Arc Lamp (Model 69907) equipped with a 360 nm colored glass filter (300-400 nm band pass) and an IR filter for various time periods (0-30 min).
An aliquot from each irradiation time period was added to the assay solution. A decrease in fluorescence intensity is indicative of displacement of the SH2 domain sensor A from the SH2 domain by uncaged peptide (6) (see FIGS. 7 and 8). An analogous set of experiments was performed with peptide 5. The formation of uncaged peptide 6 from caged peptides 4 and 5 was confirmed by analytical HPLC (comparison with the retention time of peptide 6 prepared by solid phase peptide synthesis) and by mass spectrometry.

[3] = molecular target: T2, α-chymotrypsin (Bos taurus, UniProt P00766); test: Chymotrypsin continuous fluorescence substrate assay; type: biochemical
T2 construct: purchased Fisher or Aldrich (general materials statement only)
Experimental: The peptide 9 stock solution contained 5% DMSO and the assay solution contained less than 1% DMSO. The reaction was monitored on a Photon Technology QM-1 spectrofluorimeter at 30° C. using a λex=380 nm and a λem=460 nm.
Assays were conducted using 25 μM light exposed caged peptide 10 in 50 mM Tris buffer (pH 8.0), and 100 mM NaCl, 5 mM CaCl2, and 0.01% Tween-20 to which α-chymotrypsin was added to initiate the reaction. The fluorescence of the solution was monitored on a Photon Technology QM-1 spectrofluorimeter at 30° C. at λex=380 nm and λem=460 nm. Caged peptide 10 was irradiated using an Oriel Mercury Arc Lamp (Model 69907) equipped with a 360 nm colored glass filter (300-400 nm band pass) and an IR filter for various time periods (0, 5, 10, 15, and 20 min).

[4] = molecular target: GST-Lck-SH2 (UniProt P06239); test: fluorescence, 3 µM peptide A with 5 µM GST-Lck-SH2 and 32 µM unphotolysed peptide 4, t=0 min
[5] = molecular target: GST-Lck-SH2 (UniProt P06239); test: fluorescence of dapoxyl peptide A with Lck SH2 domain
[6] = molecular target: T3, cAMP-dependent protein kinase (PKA) catalytic subunit (Homo sapiens, UniProt P17612); test: PKA [γ-33P]ATP radioactive phosphorylation assay; type: biochemical
T3 construct: made in house
Experimental: PKA assays were performed in triplicate. 20 μL of a 30 μM solution of 12, which had been photolyzed for different time periods (5, 10, 15, 20, 25, 30 min), was added to each well of 96 multi-well assay plate containing 20 μL assay buffer [100 mM MOPS, 150 mM KCl, 12.5 mM MgCl2 and 150 μM cold ATP supplemented with 70-163 μCi/well [γ^−33P]ATP for radioactive detection]. 10 μL enzyme diluted buffer containing 100 mM MOPS (pH 7.1), 0.125 mg/mL bovine serum albumin, and 8 nM PKA catalytic subunit were added to initiate the reaction. Total reaction volume was 50 μL. After a 12-min incubation time at 30° C., 100 μL of 6% phosphoric acid was added to each well to stop the reaction (total volume: 150 μL). Following an additional 5 min incubation period at ambient temperature, 75 μL from each reaction well was transferred into each well of a Unifilter (P81 cellulose phosphate paper) assay plate. Each well was washed four times with 0.1% phosphoric acid in water. Scintillation solution was added to each well and ^33P-incorporation measured by scintillation counting with a MicroBeta™ TriLux & MicroBeta JET (Perkin Elmer). The formation of the photouncaged peptide was confirmed by ESI mass spectrometry.
Assays were performed as described above, except that the enzymatic reaction was stopped at different time points (2, 4, 6, 8, 10, 12, 14 min) by adding 6% phosphoric acid.

[7] = test system: H2N-Leu-Arg-Arg-Ala-Ser-Leu-Gly-NH2 (11)
[8] = test system: H2N-Leu-Arg-Arg-Ala-N(DMNB)Ser-Leu-Gly-NH2 (12)
[9] = test system: Ac-Gly-Gly-Gly-Phe-coumarin (9)
[10] = test system: Ac-Gly-Gly-Gly-N(DMNB)Phe-coumarin (10)
[11] = 10 nM α-chymotrypsin, Tris pH 8.0, 30° C.

T1 sequence (P06239 127-224 limits assumed): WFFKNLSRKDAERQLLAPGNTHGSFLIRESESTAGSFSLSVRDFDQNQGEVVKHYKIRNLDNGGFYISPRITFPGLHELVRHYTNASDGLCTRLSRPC
GST-Lck-SH2, sequence (P06239 127-224 limits assumed): as above

CC[C@H](C)[C@H](NC(=O)[C@H](CCC(=O)O)NC(=O)CN(Cc1cc(OC)c(OC)cc1[N+](=O)[O-])C(=O)[C@H](Cc1ccc(OP(=O)(O)O)cc1)NC(C)=O)C(=O)N[C@@H](CCNC(C)=O)C(=O)N[C@@H](C)C(N)=O [peptide 4, Ac-pTyr-N(DMNB)Gly-Glu-Ile-Dab(Ac)-Ala-NH2] (Ac-[pY][Gly(N-Dmnb)]EI[Dab](Ac)A-NH2)
Kd [1]: 127 ± 6 µM
effect of photolysis of the caged peptide in the competition assay ([2]; irradiation 0-30 min, 300-400 nm band pass, 32 μM peptide 4): complete displacement of A from the Lck SH2 domain

CC[C@H](C)[C@H](NC(=O)[C@H](CCC(=O)O)NC(=O)CNC(=O)[C@H](Cc1ccc(OP(=O)(O)O)cc1)N(Cc1cc(OC)c(OC)cc1[N+](=O)[O-])C(C)=O)C(=O)N[C@@H](CCNC(C)=O)C(=O)N[C@@H](C)C(N)=O [peptide 5, Ac-N(DMNB)pTyr-Gly-Glu-Ile-Dab(Ac)-Ala-NH2] (Ac-[X2]GEI[Dab](Ac)A-NH2)
Kd [1]: 43 ± 10 µM

CC[C@H](C)[C@H](NC(=O)[C@H](CCC(=O)O)NC(=O)CNC(=O)[C@H](Cc1ccc(OP(=O)(O)O)cc1)NC(C)=O)C(=O)N[C@@H](CCNC(C)=O)C(=O)N[C@@H](C)C(N)=O [peptide 6, Ac-pTyr-Gly-Glu-Ile-Dab(Ac)-Ala-NH2] (Ac-[pY]GEI[Dab](Ac)A-NH2)
Kd [1]: 2.6 ± 0.2 µM

CC[C@H](C)[C@H](NC(=O)[C@H](CCC(=O)O)NC(=O)CNC(=O)[C@H](Cc1ccc(OP(=O)(O)O)cc1)NC(C)=O)C(=O)N[C@@H](CCNS(=O)(=O)c1ccc(-c2ncc(-c3ccc(N(C)C)cc3)o2)cc1)C(=O)N[C@@H](C)C(N)=O [peptide A, Ac-pTyr-Gly-Glu-Ile-Dab(Dapoxyl)-Ala-NH2] (Ac-[pY]GEI[Dab](X1)A-NH2)
enhancement in fluorescence intensity relative to A in the absence of Lck-SH2 domain ([2]; t=0 min photolysis, 3 μM A, 5 μM GST-Lck-SH2, 32 μM peptide 4): 4 fold

Ac-Gly-Gly-Gly-N(DMNB)Phe-coumarin [peptide 10]
activity as chymotrypsin substrate after photolysis ([3]; photolysis 5, 10, 15, 20 min): increasing photolysis times converts increasing amounts of caged analogue 10 to the active substrate 9
activity as chymotrypsin substrate ([3]; without photolysis, 25 μM caged peptide): essentially inactive; also recorded: not hydrolyzed

Ac-Gly-Gly-Gly-Phe-coumarin (Ac-GGGF-coumarin; reading uncertain; also: printed as Ac-Gly-Gly-Gly-Phe-coumarin) [peptide 9]
Km [3, 11]: 6.3 ± 1.3 µM
Vmax [3, 11]: 7.2 µmol/min/mg
enhancement in fluorescence upon complete hydrolysis ([3]; λex=380 nm, λem=460 nm): ~6 fold

Ac-pTyr-Gly-Glu-Ile-Dab(Dapoxyl)-Ala-NH2 (A) (peptide)
fold enhancement in fluorescence intensity relative to A in the absence of Lck-SH2 domain [4]: 4 fold
fold increase in fluorescence upon binding [5]: 10 fold

H2N-Leu-Arg-Arg-Ala-N(DMNB)Ser-Leu-Gly-NH2 [peptide 12]
activity as PKA substrate (phosphorylation) ([6]; in the absence of photolysis): fails to serve as a substrate; also recorded: not phosphorylated
activity as PKA substrate after photolysis ([6]; photolysis 5-30 min): generates the active substrate 11

PKA catalytic subunit
PKA-catalyzed phosphorylation, [γ-33P]ATP assay [7]: photolysis of 12 generates the active substrate 11 (as demonstrated by mass spectrometry) that, upon addition of PKA, furnishes the phosphorylated product
PKA-catalyzed phosphorylation, [γ-33P]ATP assay [8]: In the absence of photolysis, peptide 12 fails to serve as a substrate

α-chymotrypsin
Km [9]: Km=6.3±1.3 µM
Vmax [9]: Vmax=7.2µmol/min-mg
hydrolysis by chymotrypsin, continuous fluorescence assay [10]: the caged derivative 10 is essentially inactive as a chymotrypsin substrate
